Measurements reported in PMC12170907 (Cell Discovery, 2025).

Columns and labels:
[1] = target: T1, Superfolder-GFP-tagged M-HBsAg (serotype ayw, genotype D3) (Hepatitis B virus genotype D3, serotype …, UniProt P03138); assay: pull-down; details: one partner purified
T1 construct: source: FreeStyle 293F cells, BacMam virus; purified (ELISA); membranes solubilised with 1% LMNG and 0.1% CHS, supernatant (pull-down); not shown: superfolder GFP, N-terminal, kept

[2] = target: T1, Superfolder-GFP-tagged M-HBsAg …; assay: ELISA; details: both partners purified

B1: strep-tagged Fab_(GC1102) (Fab, V domains shown)
VH: EVQLVESGGGLVKPGGSLRLSCSASGFSLTKYKMTWVRQAPGKGLEWVSSISSTSRDIDYADSVKGRFTISRDNAKNSLFLQMSSLRVDDTAVYYCTRDGWLWGWDVRSNYYYNALDVWGQGTTVTVSS
VL: DIVVTQSPSSLSASVGDRVTITCRASQGIYNSIAWYQQKPGKAPKLLLYSTSTLLSGVPSRFSGSGSGTDYTLTITNLQPEDFATYYCQQYFVTPETFGQGTKLEIK
notes: also called strep-HA-tagged NAb_(GC1102); Fab_(GC1102) bait
binding result [1]: binds

B2: Myc-tagged Fab_(GC1102) (Fab, V domains shown)
VH: EVQLVESGGGLVKPGGSLRLSCSASGFSLTKYKMTWVRQAPGKGLEWVSSISSTSRDIDYADSVKGRFTISRDNAKNSLFLQMSSLRVDDTAVYYCTRDGWLWGWDVRSNYYYNALDVWGQGTTVTVSS
VL: DIVVTQSPSSLSASVGDRVTITCRASQGIYNSIAWYQQKPGKAPKLLLYSTSTLLSGVPSRFSGSGSGTDYTLTITNLQPEDFATYYCQQYFVTPETFGQGTKLEIK
notes: also called NAb_(GC1102); GC1102 prey
binding result [1]: binds

B3: 3× HA-tagged FabHBC (Fab, V domains shown)
VH: ELQLVESGGGWVQPGGSQRLSCAASGRIFRSFYMSWVRQAPGKGLEWVATINQDGSEKLYVDSVKGRFTISRDNAKNSLFLQMNNLRVEDTAVYYCAAWSGNSGGMDVWGQGTTVSVSS
VL: SYELTQPPSVSVSPGQTVSIPCSGDKLGNKNVCWFQHKPGQSPVLVIYEVKYRPSGIPERFSGSNSGNTATLTISGTQAMDEAAYFCQTWDSTTVVFGGGTRLTVL
notes: also called NAbHBC; parental antibody of VIR-3434; source: FreeStyle 293F, co-transfected heavy and light chain, purified from the supernatant (Ni-NTA, SP HP); not shown: His tag (from the Ni-NTA purification); 3× HA, C-terminal, kept
binding result [2]: binds

B4: strep-tagged Fab_(H006) (Fab, V domains shown)
VH: QMRLVESGGGVVRPGGSLRLSCAGSGFRFTGYGIHWVRQAPGKGLEWLAYISNDGSKKYHTDSVKGRFTVSRDNAKNTAYLQMNSLRVEETAVYFCAKDGYLSAARGYGMDVWGQGIPVTVSP
VL: SYVLTQPPSVSVAPGQTATITCGGNNIGGKSVHWFQQKPGQAPLLIISDDNDRPSGIPERVSGSNSGNTATLTISRVEAGDEADYYCQVWDTTSDQLVFGGGTMLTVL
binding result [1]: binds

B5: Myc-tagged scFv_(H006) (scFv, V domains shown)
VH: QMRLVESGGGVVRPGGSLRLSCAGSGFRFTGYGIHWVRQAPGKGLEWLAYISNDGSKKYHTDSVKGRFTVSRDNAKNTAYLQMNSLRVEETAVYFCAKDGYLSAARGYGMDVWGQGIPVTVSP
VL: SYVLTQPPSVSVAPGQTATITCGGNNIGGKSVHWFQQKPGQAPLLIISDDNDRPSGIPERVSGSNSGNTATLTISRVEAGDEADYYCQVWDTTSDQLVFGGGTMLTVL
binding result [1]: binds
